Test results as given in patent US20250152743A1, “SYNPOPTOSIS CIRCUITS FOR PROGRAMMABLE CELL DEATH CONTROL” (California Institute of Technology, priority 2023, published 2025).

Experiments:
HEK cells = assay: Transient DNA transfection of HEK cells, Annexin/Sytox staining, flow cytometry; format: cell-based, human; conditions: for cell death without the activating TEVP: expressed at high levels indicated by co-transfected Cherry
Experimental: HEK cells were transiently co-transfected with DNA encoding the circuits, often along with Cherry, a fluorescent protein marker, and cells were analyzed by flow cytometry 16 to 24 hours later. To quantify cell death, the cells were strained with Annexin, Sytox, or both. Annexin stains apoptotic cells by binding to phosphatidylserine exposed on the outer leaflet, and pyroptotic cells by binding to phosphatidylserine in the inner leaflet after membrane permeabilization. In contrast, Sytox, a membrane-impermeable dye, primarily stains pyroptotic cells. Therefore, apoptotic cells are typically Annexin-high and Sytox-low, while pyroptotic cells are Annexin-high and Sytox-high (FIG. 7B). For simplicity, in experiments involving only a single death mode, a single relevant dye was often used. To focus on cells influenced by the circuits, the fraction of Annexin- or Sytox-positive cells was calculated after gating on the fluorescent co-transfection marker (FIG. 7C).
On the day before transfection, HEK cells were seeded at a density of 0.3-0.6 million cells per well on a 12-well plate, 0.1-0.3 million cells per well on a 24-well plate, or 15,000-50,000 cells per well on a 96-well plate. The cells were allowed to attach to the plate overnight, for at least 8 hours. On the day of transfection, we treated the cells with purified DNA plasmids encoding circuit components. In addition to plasmids encoding circuit components, we often included a plasmid encoding a fluorescent co-transfection marker, at roughly 50 ng DNA per well on a 24-well plate. Given the different number of molecular components in each synthetic circuit and their various relative ratios, the total amount of DNA ranged from 50 to 1 μg per well on a 24-well plate, and was scaled by […] when other 12-well or 96-well plates were used, respectively. On the same plate, we often equalized the total amount of DNA across all transfected wells, using a filler plasmid encoding the neomycin resistance gene. To transfect cells with plasmid DNA, we used three types of transfection reagents—Lipofectamine 2000 (Thermo Fisher), Lipofectamine 3000 (Thermo Fisher), and FuGENE HD (Promega), according to manufacturers' instructions. Briefly, for a typical transfection experiment on a 24-well plate, we mixed plasmids and the transfection reagent, around 200 ng of DNA per 1 μl of Lipofectamine 2000, in 25 μl of Opti-MEM reduced serum medium (Thermo Fisher), incubated the mixture for 5-10 min at room temperature, and then added another 25 μl of Opti-MEM before transferring the mixture dropwise to culture wells. We also performed some transfection experiments using the Lipofectamine 3000 kit (Thermo Fisher), at a ratio of 2,000 ng of DNA, 2 ul of 4 ul of P3000, and 3 μl of Lipofectamine 3000. We similarly diluted the mixture in Opti-MEM before adding it to cells. For transfection with FuGENE, we used a ratio of 4 μl FuGENE:1 μg of DNA, and incubated the DNA-FuGENE mixture at room temperature for 5 min before transfection. To enable protein expression from plasmids with a doxycycline-inducible promoter, doxycycline was added to the cell culture at a final concentration of 100 ng/mL. In experiments involving Q-VD-OPh, the compound was added to the cell culture at a final concentration of 30 μM, immediately after the cells received the transfection mixture. To transfect cells with in vitro transcribed mRNA, Lipofectamine MessengerMax (Thermo Fisher) was used. Briefly, for transfection of one well in a 96-well plate, 0.1 μL of Lipofectamine MessengerMAX was diluted in 1.25 μL Opti-MEM and incubated for 10 minutes at room temperature. mRNA was then added to Opti-MEM to the appropriate conditions at the following amounts: 12.5 ng of fluorescent co-transfection marker, 56.25 ng of protease, and 56.25 ng of engineered executioner. Diluted mRNA was then added to diluted MessengerMAX reagent and incubated for 5 minutes at room temperature before addition to Jurkat or THP-1 cells in RPMI media. […]

[1] = system: sender and receiver HEK cells
Experimental: For experiments that involved circuit senders and receivers, sender HEK cells were seeded on a 12-well plate at a density of 0.6 million cells per well (day 1). On the following day (day 2), using Lipofectamine 3000 (Thermo Fisher), we transfected the sender cells with 450 ng of pLVX-M-PURO plasmid containing the cargo, 450 ng of M-psPAX2, and 100 ng of pCMV-VSV-G. To generate VLPs encoding two cargoes, we performed similar transfections using two cargo-containing plasmids, each at 225 ng. At 8 hours post transfection, we removed the media containing residual Lipofectamine particles, washed the cells gently with fresh media, and replaced the media. One day after transfection of sender cells (day 3), we typically seeded receiver HEK cells on a 24-well plate at a density of around 0.3 million cells per well or on a 96-well plate at around 75,000 cells per well. We also tried other receiver densities, in which case we needed to dilute the cells if they approached confluency during the course of the experiment. Two days after transfection of sender cells (day 4), we collected the sender supernatant, centrifuged it at 3,000 g for 5 min to remove cell debris, and passed it through a cellulose acetate filter with 0.45 μm pore size (VWR). […] After about 40 hours, we collected the co-cultured cells, stained them with Sytox, and analyzed cell death by flow cytometry. […]

HEK293FT cells [2] = assay: Polytransfection of input proteases and caspase cleavage-site variants, Annexin staining; format: cell-based, human
From the text: The cleavage efficiency of proteases is known to depend on corresponding accessible cleavage sites. Mutations to native protease cleavage sites can slow (i) the recruitment of substrates to the protease active site, (ii) catalytic reaction steps, or (iii) the release of the substrate from the protease. As described herein, this property to modulate cell death executioner activation thresholds. Specifically, we surveyed the following constructs with modified protease cleavage sites across a wide range of possible cell death executioner and input protease expression regimes: […]
To evaluate how the mutated protease cleavage sites affect Caspase 3 activation, we polytransfected (i) input proteases (P3/P4-zipper reconstituted TEVP as a positive control, split TEVP without reconstitution domain as a negative control, or NeoR to evaluate caspase baseline activity; all with IRES-BFP to enable expression tracking) and (ii) output caspase (caspase+co-transfected GFP for expression tracking) in HEK293FT cells. Annexin staining as described above in Example 1 was used to quantify cell death.

HEK293FT cells [3] = assay: Co-transfection time course, cell death every 24 h over 4 days; format: cell-based, human; conditions: P3/P4-zipper reconstituted TEVP
Experimental: Moreover, it was evaluated if some of these mutations affect the maximal caspase activation accessible and the time dependency between caspase activation and cell death by co-transfecting (i) input proteases (P3/P4-zipper reconstituted TEVP as a positive control, split TEVP without reconstitution domain as a negative control, or NeoR to evaluate caspase baseline activity; all with IRES-BFP to enable expression tracking) and (ii) output caspase (“ENLYFQS” (SEQ ID NO: 2)/“ENLYFQQ” (SEQ ID NO: 4)/“ENLFFQQ” (SEQ ID NO: 7)+co-transfected GFP for expression tracking) in HEK293FT cells and measuring cell death every 24 h over the course of 4 days.

| Molecule | mode of cell death, Sytox and Annexin double staining (HEK cells; background of TEVP activating TEVP-activatable caspase-3) | cell death without the activating TEVP (HEK cells) | sender cell death [1] | activation of cognate engineered GSDMs containing the cleavage sites (HEK cells; tev, tvmv and hcv sites) | Sytox uptake (HEK cells; co-transfected with TEVP) | cell death / apoptosis, Annexin staining (HEK cells; with TEVP, flow cytometry 16 to 24 hours after DNA transfection) | activation at high caspase expression with non-reconstituted split protease (HEK293FT cells [2]) | input/output expression required for caspase activation (activation threshold) (HEK293FT cells [2]; order, decreasing: ENLFFQQ, ENLFFQY, ENLYFQS+TEVP-cleavable DHFR, ENLFFQS~ENLYFQY~ENLYFQQ, ENLYFQS, both TEVP and TVMVP cleavage site) | maximal caspase activation / maximal fraction of dead cells (HEK293FT cells [3]) |
| --- | --- | --- | --- | --- | --- | --- | --- | --- | --- |
| TEVP-activatable GSDMA: GSDMA with TEVP cleavage site between N-terminal and C-terminal domains; SEQ ID NO: 16 (protein) MGSPVFEDVTRALVRELNPRGDLTPLDSLIDFKHFRPFCLVLRKRKSTLFWGARYVRTDYTLLDLLEPGSSPSDLTDSGNFSFKNMLDVQVQGLVEVPKTVKVKGTAGLSQSSTLEVQTLSVAPSALENLKKERKLSADHSFLNEMRYHEKNLYVVMEAVEAKQEVTVEQTGNANAIFSLPSLALLGLQGSLNNNKAVTIPKGCVLAYRVRLLRVFLFNLWDIPYICNDSMQTFPKIRRVPCSAFISPTQMISEEPEEEKLIGEENLYFQSMHEDFKTLKEEVQRETQEVEKLSPVGRSSLLTSLSHLLGKKKELQDLEQKLEGALDKGQKVTLEALPKDVLLSKDAMDAILYFLGALTELTEEQLKILVKSLEKKILPVQLKLVESTLEQNFLQDKEGVFPLQPDLLSSLGEEELTLTEALVGLSGLEVQRSGPQYAWDPDTRHNLCALYAGLSLLHLLSRKSNALTYCALS | converted apoptosis to pyroptosis | induced noticeable cell death even without the activating TEVP | neither circuit component alone triggered substantial sender cell death | – | – | – | – | – | – |
| tobacco etch virus protease (protein, viral input protease) MGSGESLFKGPRDYNPISSTICHLTNESDGHTTSLYGIGFGPFIITNKHLFRRNNGTLLVQSLHGVFKVKNTTTLQQHLIDGRDMIIIRMPKDFPPFPQKLKFREPQREERICLVTTNFQTKSMSSMVSDTSCTFPSSDGIFWKHWIQTKDGQCGSPLVSTRDGFIVGIHSASNFTNTNNYFTSVPKNFMELLTNQEAQQWVSGWRLNADSVLWGGHKVFMVKPEEPFQPVKEATQLMNS | – | – | neither circuit component alone triggered substantial sender cell death | orthogonally activated their cognate engineered GSDMs | – | – | – | – | – |
| TEVP-activatable caspase-3: caspase-3 whose cleavage site between large and small subunits was replaced by a TEVP cleavage site; SEQ ID NO: 10 (protein) MGSENTENSVDSKSIKNLEPKIIHGSESMDSGISLDNSYKMDYPEMGLCIIINNKNFHKSTGMTSRSGTDVDAANLRETFRNLKYEVRNKNDLTREEIVELMRDVSKEDHSKRSSFVCVLLSHGEEGIIFGTNGPVDLKKITNFFRGDRCRSLTGKPKLFIIQACRGTELDCGIETENLYFQSGVDDDMACHKIPVEADFLYAYSTAPGYYSWRNSKDGSWFIQSLCAMLKQYADKLEFMHILTRVNRKVATEFESFSFDATFHAKKQIPCIVSMLTKELYFYH | – | induced noticeable cell death even without the activating TEVP | – | – | only modestly took up Sytox | ability of the modified caspase-3 to kill HEK cells when co-transfected with TEVP was verified | leaky activation | in decreasing order | comparable maximal fraction of dead cells |
